Our source for the binding result and IC50 values is patent US20110123544A1 (published 2011).

Numbering of substitutions follows the chain as printed. In names and notes the source's numbering stands.

As usually defined, the IC50 is the concentration that gives 50% inhibition.

In one assay the target is T1, recombinant rhesus IL-12 (rhesus monkey, UniProt P48095 23-328; P48091 23-219).
T1 construct: Obtained from Emory University School of Medicine
T1 sequence (looked up) 1: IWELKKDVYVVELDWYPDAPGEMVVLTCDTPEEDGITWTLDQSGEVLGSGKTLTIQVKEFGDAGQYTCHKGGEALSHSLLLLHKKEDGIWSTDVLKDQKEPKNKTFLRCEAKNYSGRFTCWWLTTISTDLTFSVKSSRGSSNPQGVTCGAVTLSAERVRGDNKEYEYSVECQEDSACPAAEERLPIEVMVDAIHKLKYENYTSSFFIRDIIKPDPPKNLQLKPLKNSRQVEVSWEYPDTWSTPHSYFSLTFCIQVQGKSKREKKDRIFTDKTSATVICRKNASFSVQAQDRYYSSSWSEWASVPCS
T1 sequence (looked up) 2: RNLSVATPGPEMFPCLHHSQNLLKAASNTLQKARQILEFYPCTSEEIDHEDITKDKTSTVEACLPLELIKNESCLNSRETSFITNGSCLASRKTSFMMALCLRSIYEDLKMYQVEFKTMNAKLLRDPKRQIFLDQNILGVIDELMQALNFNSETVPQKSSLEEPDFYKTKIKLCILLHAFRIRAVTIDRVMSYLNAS
The experiment in a line: neutralisation bioassays with purified rhesus IL-12.

The target in the next assay is T2, recombinant murine IL-12 (mouse, UniProt P43432 23-335; P43431 23-215).
T2 construct: R&D Systems Cat. No. 419-ML in the BIAcore test; 'purified murine IL-12' in the bioassays; also called mouse IL-12; rmIL12
T2 sequence (looked up) 1: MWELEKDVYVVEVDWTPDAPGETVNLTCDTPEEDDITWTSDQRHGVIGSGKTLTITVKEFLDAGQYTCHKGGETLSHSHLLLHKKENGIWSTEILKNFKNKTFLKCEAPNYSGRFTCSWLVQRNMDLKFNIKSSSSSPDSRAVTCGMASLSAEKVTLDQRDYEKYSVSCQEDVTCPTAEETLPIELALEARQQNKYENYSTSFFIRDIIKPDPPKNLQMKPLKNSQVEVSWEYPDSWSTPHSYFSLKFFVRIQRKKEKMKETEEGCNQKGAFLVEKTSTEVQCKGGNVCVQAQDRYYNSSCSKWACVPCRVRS
T2 sequence (looked up) 2: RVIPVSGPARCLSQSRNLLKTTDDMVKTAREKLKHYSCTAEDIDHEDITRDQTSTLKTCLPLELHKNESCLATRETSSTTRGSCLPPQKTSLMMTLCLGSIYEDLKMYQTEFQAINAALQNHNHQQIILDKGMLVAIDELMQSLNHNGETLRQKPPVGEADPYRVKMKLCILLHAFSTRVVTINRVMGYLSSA
The experiment in a line: neutralisation bioassay with purified murine IL-12 (2D6 cell proliferation).

Assay [1] has as its target T3, recombinant human interleukin 12 (p40/p35 heterodimer) (human, UniProt P29460 23-328; P29459 23-219).
T3 construct: Disulfide-linked heterodimer; also called human IL-12; hIL-12
T3 sequence (looked up) 1: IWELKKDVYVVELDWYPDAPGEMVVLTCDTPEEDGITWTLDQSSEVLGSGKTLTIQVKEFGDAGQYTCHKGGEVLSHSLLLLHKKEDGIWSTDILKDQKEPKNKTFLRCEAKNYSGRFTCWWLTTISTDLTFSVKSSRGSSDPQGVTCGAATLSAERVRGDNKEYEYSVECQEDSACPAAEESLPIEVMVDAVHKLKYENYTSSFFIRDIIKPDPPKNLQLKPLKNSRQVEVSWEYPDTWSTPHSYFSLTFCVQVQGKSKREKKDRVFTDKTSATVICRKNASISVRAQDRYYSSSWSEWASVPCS
T3 sequence (looked up) 2: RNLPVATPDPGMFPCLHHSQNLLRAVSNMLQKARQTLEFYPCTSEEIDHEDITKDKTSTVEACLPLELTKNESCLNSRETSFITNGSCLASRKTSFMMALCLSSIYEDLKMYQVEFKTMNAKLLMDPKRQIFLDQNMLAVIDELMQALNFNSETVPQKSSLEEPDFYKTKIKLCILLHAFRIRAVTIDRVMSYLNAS
The experiment in a line: IL-12 receptor binding assay (RBA): inhibition of labelled IL-12 binding to PHA blasts.

Description for recombinant murine IL-12: 2D6 cells were washed once and resuspended in RPMI complete medium containinγ βME to a cell density of 1×10⁵ cells/ml. […] The culture contents were harvested and counted by liquid scintillation counting. All samples were assayed in duplicate.

B1: J695 human anti-human IL-12 antibody (antibody, V domains shown)
VH: QVQLVESGGGVVQPGRSLRLSCAASGFTFSSYGMHWVRQAPGKGLEWVAFIRYDGSNKYYADSVKGRFTISRDNSKNTLYLQMNSLRAEDTAVYYCKTHGSHDNWGQGTMVTVSS
VL: QSVLTQPPSVSGAPGQRVTISCSGSRSNIGSNTVKWYQQLPGTAPKLLIYYNDQRPSGVPDRFSGSKSGTSASLAITGLQAEDEADYYCQSYDRYTHPALLFGTGTKVTVLG
notes: tested as human IgG1 with lambda light chain (detected with anti-human lambda); Made in CHO or COS cells; also called Y61-L94Y-L50Y IgG
Consider B1, for which the values for the binding result with recombinant rhesus IL-12 and in the assay with recombinant murine IL-12 were “binds” and “no binding”, respectively.

B2: Joe 9 wild type (scFv, V domains shown)
VH: B1 VH with E6Q, N84K, K97T, H99S, H102Y, N104Y
VL: SYVLTQPPSVSGTPGQRVTISCSGGRSNIGSNTVKWYQQLPGTAPKLLIYGNDQRPSGVPDRFSGSKSGTSASLAITGVQAEDEADYYCQSYDSSLRGSRVFGTGTKVTVL
For B2, the concentration for half-maximal inhibition (IC50) in assay [1] is 1000 nM.
